Assay [1] has as its target T1, A isoform of the insulin receptor (UniProt P06213-2 28-1370, limits assumed).
T1 construct: Isoform A is the short isoform lacking exon 11; also called IR-A
The experiment in a line: receptor affinity (method not described), relative to wild-type human insulin.

The target of assay [2] is B isoform of the insulin receptor (UniProt P06213). The assay is described as above.
Assay [3] concerns the target IGF Type I receptor (IGF-1R) (UniProt P08069). The experiment in a line: receptor affinity (method not described), relative to wild-type insulin.
Assay [4] has as its target T1, A isoform of the insulin receptor. The assay can be described thus: receptor-binding affinity assay (method not described; data not shown), relative to wild-type human insulin.
Substrate in assay [5]: B isoform of the insulin receptor (UniProt P06213)
The assay can be described thus: receptor-binding affinity assay (method not described), relative to wild-type human insulin.

“And” between values parts separate entries of the source, which are not always exact repeats. Equal values may be shown once. Bridges are numbered along the chain shown (N, C = ends). Where no end group is shown, it is not given here.

Experimental findings from patent publication US20210162014A1 (CASE WESTERN RESERVE UNIVERSITY, published 2021) are described below.

For the molecule “59-mer SCI with C domain EEGSRRSR ('this SCI' of paragraph 30) (ligand)”, the affinity relative to wild-type human insulin (percent) in assay [1] and in assay [2] was 10 to 150% each time. In assay [3], this molecule gave a fold reduction in affinity relative to wild-type insulin of 10 fold.

B1: 4SS 81-04 (57mer single-chain insulin analogue containing a fourth disulfide bridge between residues B4 and A10) (ligand)
chain: FVNCHLCGSHLVEALYLVCGERGFFYTDPTEEGPRRGIVEQCCHSCCSLEQLENYCN
modifications: disulfide 19-56, 4-46, 42-47, 7-43
notes: Single-chain insulin analogue, 57 residues, C domain EEGPRR; also called analogue 4SS 81-04
Take B1: the “affinity relative to human insulin (percent)” value in assay [4] was 120 percent. For the same molecule, the fold reduction in affinity relative to wild-type human insulin in assay [5] was 5 fold and 10 fold.
